Numbering of substitutions follows the chain as printed.
T1: human TFPI K1 (human, UniProt P10646 29-107, limits assumed)
T1 construct: domain: K1; also called Kunitz domain 1
T1 sequence (looked up): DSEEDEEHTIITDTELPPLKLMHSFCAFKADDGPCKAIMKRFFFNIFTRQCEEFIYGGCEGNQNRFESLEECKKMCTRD

T2: mouse tissue factor pathway inhibitor (TFPI) (mouse, UniProt O54819 29-289, limits assumed)
T2 construct: Bought protein; also called mouse TFPI; mTFPI
T2 sequence (looked up): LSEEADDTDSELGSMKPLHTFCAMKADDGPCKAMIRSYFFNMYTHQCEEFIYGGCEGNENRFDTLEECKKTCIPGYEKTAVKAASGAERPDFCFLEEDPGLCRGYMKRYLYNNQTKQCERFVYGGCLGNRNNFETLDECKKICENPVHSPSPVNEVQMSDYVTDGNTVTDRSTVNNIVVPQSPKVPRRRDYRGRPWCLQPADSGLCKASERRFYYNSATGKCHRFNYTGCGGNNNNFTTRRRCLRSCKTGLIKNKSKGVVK

T3: human tissue factor pathway inhibitor (TFPI) (human, UniProt P10646 29-304, limits assumed)
T3 construct: Bought protein; also called human TFPI; hTFPI
T3 sequence (looked up): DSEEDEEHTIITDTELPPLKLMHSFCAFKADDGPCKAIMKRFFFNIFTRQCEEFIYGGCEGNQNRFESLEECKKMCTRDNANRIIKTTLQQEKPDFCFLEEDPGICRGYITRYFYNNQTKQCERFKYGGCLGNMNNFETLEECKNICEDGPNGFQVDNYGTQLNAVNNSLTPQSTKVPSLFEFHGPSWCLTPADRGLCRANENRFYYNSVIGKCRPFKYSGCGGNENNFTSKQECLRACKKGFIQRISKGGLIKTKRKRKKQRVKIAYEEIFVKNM

B1: TP-2A8-IgG (antibody, V domains shown)
VH: QVQLVESGGGLVQPGGSLRLSCAASGFTFRSYGMSWVRQAPGKGLEWVSSIRGSSSSTYYADSVKGRFTISRDNSKNTLYLQMNSLRAEDTAVYYCARKYRYWFDYWGQGTLVTVSS
VL: DIELTQPPSVSVAPGQTARISCSGDNLRNYYAHWYQQKPGQAPVVVIYYDNNRPSGIPERFSGSNSGNTATLTISGTQAEDEADYYCQSWDDGVPVFGGGTKLTVLG
notes: Chimeric IgG: human variable regions on mouse constant regions, murine IgG1 isotype, made in HKB11 cells
B2: TP-2B3 Fab (Fab, V domains shown)
VH: QVQLQQSGPGLVKPSQTLSLTCAISGDSVSSNSAAWGWIRQSPGRGLEWLGMIYYRSKWYNSYAVSVKSRITINPDTSKNQFSLQLNSVTPEDTAVYYCARTMSKYGGPGMDVWGQGTLVTVSS
VL: DIVLTQSPATLSLSPGERATLSCRASQNIGSNYLAWYQQKPGQAPRLLIYGASTRATGVPARFNGSGSGTDFTLTISSLEPEDFAVYYCQQLNSIPVTFGQGTKVEIKR
notes: Human Fab from HuCal Gold, expressed in E. coli TG1
B3: TP-2A2 Fab (Fab, V domains shown)
VH: QVQLVESGGGLVQPGGSLRLSCAASGFTFSNNAMNWVRQAPGKGLEWVSTISYDGSNTYYADSVKGRFTISRDNSKNTLYLQMNSLRAEDTAVYYCARQAGGWTYSYTDVWGQGTLVTVSS
VL: DIELTQPPSVSVAPGQTARISCSGDNIRTYYVHWYQQKPGQAPVVVIYGDSKRPSGIPERFSGSNSGNTATLTISGTQAEDEADYYCQSYDSEADSEVFGGGTKLTVLG
notes: as for B2
B4: TP-3G3 Fab (Fab, V domains shown)
VH: QVQLVESGGGLVQPGGSLRLSCAASGFTFSSYSMSWVRQAPGKGLEWVSSISSSSSNTYYGDSVKGRFTISRDNSKNTLYLQMNSLRAEDTAVYYCARMHYKGMDIWGQGTLVTVSS
VL: DIQMTQSPSSLSASVGDRVTITCRASQNIHSHLNWYQQKPGKAPKLLIYDASSLQSGVPSRFSGSGSGTDFTLTISSLQPEDFAVYYCQQYYDYPLTFGQGTKVEIKR
notes: as for B2
B5: TP-2E5 Fab (Fab, V domains shown)
VH: QVQLQQSGPGLVKPSQTLSLTCAISGDSVSSNSAAWSWIRQSPGRGLEWLGMIFYRSKWNNDYAVSVKSRITINPDTSKNQFSLQLNSVTPEDTAVYYCARVNANGYYAYVDLWGQGTLVTVSS
VL: DIQMTQSPSSLSASVGDRVTITCRASQPIYNSLSWYQQKPGKAPKLLIYGVSNLQSGVPSRFSGSGSGTDFTLTISSLQPEDFAVYYCLQVDNLPITFGQGTKVEIKR
notes: as for B2
B6: TP-3A4 Fab (Fab, V domains shown)
VH: QVQLVESGGGLVQPGGSLRLSCAASGFTFSSYWMHWVRQAPGKGLEWVSSISYDSSNTYYADSVKGRFTISRDNSKNTLYLQMNSLRAEDTAVYYCARYGGMDYWGQGTLVTVSS
VL: DIELTQPPSVSVAPGQTARISCSGDNLRDKYASWYQQKPGQAPVLVIYSKSERPSGIPERFSGSNSGNTATLTISGTQAEDEADYYCSSYTLNPNLNYVFGGGTKLTVLG
notes: as for B2
B7: TP-3C1 Fab (Fab, V domains shown)
VH: QVQLVESGGGLVQPGGSLRLSCAASGFTFSSYSMHWVRQAPGKGLEWVSGISYSSSFTYYADSVKGRFTISRDNSKNTLYLQMNSLRAEDTAVYYCARALGGGVDYWGQGTLVTVSS
VL: DIALTQPASVSGSPGQSITISCTGTSSDLGGFNTVSWYQQHPGKAPKLMIYSVSSRPSGVSNRFSGSKSGNTASLTISGLQAEDEADYYCQSYDLNNLVFGGGTKLTVLG
notes: Human Fab from HuCal Gold, expressed in E. coli TG1; Shares its VL with TP-2G9 and its VH with TP-3F2
B8: TP-2C7 Fab (Fab, V domains shown)
VH: QVQLQQSGPGLVKPSQTLSLTCAISGDSVSSNSAAWGWIRQSPGRGLEWLGIIYYRSKWYNHYAVSVKSRITINPDTSKNQFSLQLNSVTPEDTAVYYCARSNWSGYFDYWGQGTLVTVSS
VL: B4 VL with N28D, H30R, S31N, H32N, N34A, D50A, Y91R, Y92N, D93G, Y94F
notes: as for B2
B9: TP-2G9 Fab (Fab, V domains shown)
VH: QVQLVESGGGLVQPGGSLRLSCAASGFTFNSYAMTWVRQAPGKGLEWVSAIKSDGSNTYYADSVKGRFTISRDNSKNTLYLQMNSLRAEDTAVYYCARNDSGWFDVWGQGTLVTVSS
VL: B7 VL
notes: as for B2
B10: TP-4B7 Fab (Fab, V domains shown)
VH: QVQLQQSGPGLVKPSQTLSLTCAISGDSVSSNSAAWSWIRQSPGRGLEWLGIIYKRSKWYNDYAVSVKSRITINPDTSKNQFSLQLNSVTPEDTAVYYCARWHSDKHWGFDYWGQGTLVTVSS
VL: DIVMTQSPLSLPVTPGEPASISCRSSQSLVFSDGNTYLNWYLQKPGQSPQLLIYKGSNRASGVPDRFSGSGSGTDFTLKISRVEAEDVGVYYCQQYDSYPLTFGQGTKVEIKR
notes: as for B2
B11: TP-3G1 Fab (Fab, V domains shown)
VH: QVQLQQSGPGLVKPSQTLSLTCAISGDSVSSNSGGWGWIRQSPGRGLEWLGLIYYRSKWYNAYAVSVKSRITINPDTSKNQFSLQLNSVTPEDTAVYYCARYLGSNFYVYSDVWGQGTLVTVSS
VL: DIQMTQSPSSLSASVGDRVTITCRASQGISSYLHWYQQKPGKAPKLLIYGASTLQSGVPSRFSGSGSGTDFTLTISSLQPEDFATYYCQQQNGYPFTFGQGTKVEIKR
notes: as for B2

Target: T1, human TFPI K1
Experiment: Western blots and ELISA
Procedure: Western blots and ELISA were used to determine which domain(s) of TFPI of the inhibitory antibodies bind. Recombinant full length human TFPI or TFPI domains were used for these studies. ELISA was similar to Example 3. In the Western Blot, human TFPI or domains were run on 4-12% Bis-Tris SDS PAGE running buffer MES (Invitrogen, Carlsbad, Calif.) and then transferred to cellulose membrane. After incubation with inhibitory antibodies for 10 min, the membrane was washed three times using SNAPid system (Millipore, Billerica, Mass.). A HRP conjugated donkey anti-mouse antibody (Pierce, Rockford, Ill.) at 1 to 10,000 dilution was incubated with the membrane for 10 min. After a similar wash step, the membrane was developed using SuperSignal substrate (Pierce, Rockford, Ill.). Whereas the control anti-Kunitz domain 1 antibody binds to full length TFPI, truncated TFPI and domains, inhibitory anti-TFPI antibodies only bind to TFPI containing Kunitz domain 2.

| Binder | binding result |
| --- | --- |
| B1 | no binding |

Target: T2, mouse tissue factor pathway inhibitor …
Experiment: Biacore, TFPI on CM5 chip, Fab in mobile phase
Procedure: (§1) Purified Fab antibodies were used to determine EC₅₀ of anti-TFPI antibodies to human or mouse TFPI. EC₅₀ was assessed in an ELISA, similarly as described above. The results were analyzed using SoftMax. The binding affinity of anti-TFPI antibodies was determined in a Biacore assay. Briefly, the antigen, either human or mouse TFPI, was immobilized on the CM5-chips using the amine coupling kit (GE HealthCare) according to the instructions of the manufacturer. The amount of immobilized TFPI was adjusted to the mass of the antigen to give approximate 300 RU. The antibody Fabs were analyzed in mobile phase and at least five different concentrations (0.1, 0.4, 1.6, 6.4 and 25 nM) of the purified antibodies were used in the Biacore assay. The kinetics and binding affinity were calculated using Biacore T100 Evaluation software.

| Binder | Kd |
| --- | --- |
| B2 | 27 nM |
| B3 | 29.8 nM |
| B4 | 25.7 nM |
| B5 | 25.2 nM |
| B6 | 23.7 nM |
| B7 | 33.6 nM |
| B8 | 9.33 nM |
| B9 | 35.7 nM |
| B10 | 51.8 nM |
| B11 | 49.1 nM |

Target: T3, human tissue factor pathway inhibitor …
Experiment: Biacore, TFPI on CM5 chip, Fab in mobile phase
Procedure: as §1

| Binder | Kd |
| --- | --- |
| B2 | 7.4 nM |
| B3 | 6.57 nM |
| B4 | 16 nM |
| B5 | 115 nM |
| B6 | 21.6 nM |
| B7 | 21.6 nM |
| B8 | 2.01 nM |
| B9 | 48.5 nM |
| B10 | 15.8 nM |
| B11 | 1140 nM |

Target: T2, mouse tissue factor pathway inhibitor …
Experiment: ELISA, Fab on coated TFPI
Procedure: (§2) To select antibody clones that bind to human TFPI, Fab genes of the phage clones from the second and third round of panning were subcloned into a bacterial expression vector and expressed in E. coli strain TG1. The bacterial lysate was added to the wells of the human TFPI-coated Maxisorp plates. After washing, HRP-conjugated goat anti-human Fab was used as a detection antibody and the plates were developed by adding AmplexRed (Invitrogen) with hydrogen peroxide. A signal of at least five-fold higher than the background was considered as positive. The cross reactivity of the anti-human TFPI antibodies to mouse TFPI was determined by a similar mouse TFPI-binding ELISA. The plates were coated with mouse TFPI (R&D System), BSA and lysozyme. The later two antigens were used as negative controls.
as §1

| Binder | EC50 |
| --- | --- |
| B2 | 20.2 nM |
| B3 | 1040 nM |
| B4 | 47.1 nM |
| B5 | 202 nM |
| B6 | 327 nM |
| B7 | 108 nM |
| B8 | 0.6 nM |
| B9 | 194 nM |
| B10 | 2.64 nM |
| B11 | 8.68 nM |

Target: T3, human tissue factor pathway inhibitor …
Experiment: ELISA, Fab on coated TFPI
Procedure: as §2, §1

| Binder | EC50 |
| --- | --- |
| B2 | 0.84 nM |
| B3 | 0.62 nM |
| B4 | 33.6 nM |
| B5 | 792 nM |
| B6 | 42.8 nM |
| B7 | 32.8 nM |
| B8 | 0.6 nM |
| B9 | 10.8 nM |
| B10 | 0.74 nM |
| B11 | 74.4 nM |

Target: T4, BSA (bovine, UniProt P02769 25-607)
T4 construct: also called bovine serum albumin
Experiment: ELISA
Procedure: as §2

T4 sequence (P02769 25-607 limits assumed): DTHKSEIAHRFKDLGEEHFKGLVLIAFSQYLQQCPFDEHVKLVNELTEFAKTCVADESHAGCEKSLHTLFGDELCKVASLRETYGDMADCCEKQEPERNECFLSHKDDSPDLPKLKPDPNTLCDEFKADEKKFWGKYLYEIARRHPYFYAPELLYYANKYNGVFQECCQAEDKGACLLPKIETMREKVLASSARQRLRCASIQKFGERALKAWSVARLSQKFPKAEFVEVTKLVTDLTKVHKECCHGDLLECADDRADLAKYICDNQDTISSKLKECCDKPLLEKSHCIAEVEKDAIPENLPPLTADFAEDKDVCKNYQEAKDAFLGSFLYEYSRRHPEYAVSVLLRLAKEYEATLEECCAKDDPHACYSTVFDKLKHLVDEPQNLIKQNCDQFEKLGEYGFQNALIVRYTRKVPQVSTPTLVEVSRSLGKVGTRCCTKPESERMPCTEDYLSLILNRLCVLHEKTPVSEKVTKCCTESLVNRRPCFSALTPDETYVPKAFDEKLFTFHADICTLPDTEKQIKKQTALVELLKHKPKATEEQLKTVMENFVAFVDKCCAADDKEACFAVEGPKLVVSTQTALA

| Binder | binding result |
| --- | --- |
| B2 | no binding |
| B3 | no binding |
| B4 | no binding |
| B5 | no binding |
| B6 | no binding |
| B7 | no binding |
| B8 | no binding |
| B9 | no binding |
| B10 | no binding |
| B11 | no binding |

Target: T3, human tissue factor pathway inhibitor …
Experiment: cell-based or functional assay

| Binder | % inhibition of hTFPI activity | dPT in hemoA plasma |
| --- | --- | --- |
| B2 | 100% | 74 s |
| B3 | 23% | 70.9 s |
| B4 | 15% | 70.7 s |
| B5 | 0% | 79 s |
| B6 | 0% | 72.3 s |
| B7 | 0% | 72.3 s |
| B8 | 0% | 62.5 s |
| B9 | 0% | 82.7 s |
| B10 | 100% | 53.9 s |
| B11 | 93% | 75.1 s |

— patent US20120269817A1 (Bayer, published 2012)
